These results are taken from the DeepSol protein solubility set.

This series can be described thus: soluble on expression in E. coli; label from the status in PepcDB or PDB records.
Consider “MSLSDSNDDRPFRPFQSQYRWPGVDLLAYKEEGSAPFRSVTRQVLFSGNGLTGELRYFEVGPGGHSTLERHQHAHGVMILKGRGHAMVGRAVSAVAPYDLVTIPGWSWHQFRAPADEALGFLCMVNAERDKPQLPTEGHHHHHH”, for which the “soluble on expression in E. coli” value was “not soluble”.

Turning to “MFPLNFHYEDVLRQDLLLKLNYANVMEVPGLCEIRVVPKAPYNFIIKNGKLAMEIPCGQKFIQTQRGSTGKSFRSNPFLGSNKDKGYVSDLARQSTLRGHGMSNFLVRILTVMSLLDFPVEIRKNSIQFSMETEFCEFSPELEDHFEIFEHIRGFNVTIITSANTQDETLLLWSGFLQKDEGETQLEHHHHHH”, the “soluble on expression in E. coli” value is “not soluble”.

On to “MAHHHHHHMYRNLFDKLKDGPLKISILGSGNWASAISKVVGTNAKNNYLFENEVRMWIRDEFVNGERMVDIINNKHENTKYLKGVPLPHNIVAHSDLASVINDADLLIFIVPCQYLESVLASIKESESIKIASHAKAISLTKGFIVKKNQMKLCSNYISDFLNIPCSALSGANIAMDVAMENFSEATIGGNDKDSLVIWQRVFDLPYFKINCVNETIEVEICGALKNIITLACGFCDGLNLPTNSKSAIIRNGINEMILFGKVFFQKFNENILLESCGFADIITSFLAGRNAKCSAEFIKSTPKKTWEELENEILKGQKLQGTVTLKYVYHMIKEKNMTNEFPLFTVLHKISFENEDPSSLLKTFMNNKINQLNL”, for which the “soluble on expression in E. coli” value is “soluble”.

On to “MSFFHASQRDALNQSLAEVQGQINVSFQFFPPRTSEMEQTLWNSIDRLSSLKPKFVSVTYGANSGERDRTHSIIKGIKDRTGLEAAPHLTCIDATPDELRTIARDYWNNGIRHIVALRGDLPPGSGKPEMYASDLVTLLKEVADFDISVAAYPEVHPEAKSAQADLLNLKRKVDAGANRAITQFFFDVESYLRFRDRCVSAGIDVEIIPGILPVSNFKQAKKFADMTNVRIPAWMAQMFDGLDDDAETRKLVGANIAMDMVKILSREGVKDFHFYTLNRAEMSYAICHTLGVRPGLLEHHHHHH”, for which the “soluble on expression in E. coli” value was “soluble”.

For the sequence “MGSDKIHHHHHHMHTESIKTPTDNHAKGAVSSTVSPTTYTPDLPSDEEDYSTLINMLPPVAPSSTPTEDESTESDNMPTDALHDFSQSLETQYGIAPGVNIQQQRQQRAEANGLTFACVGRQPVDDIWQIYPARKHKLEAYSLALDIAESVGLERYVEHVVNTPVDYAYRMLPLENAVENEMVKMCYDLLMLLQTVDSTSYPSVSITLSFLLDAEKIDDVTLVKLFRLIRLVRYIRQGAHHDNV”, the “soluble on expression in E. coli” value is “not soluble”.

Consider “RGSHHHHHHGSMGDNIVLYYFDARGKAELIRLIFAYLGIEYTDKRFGVNGDAFVEFKNFKKEKDTPFEQVPILQIGDLILAQSQAIVRYLSKKYNICGESELNEFYADMIFCGVQDIHYKFNNTNLFKQNETTFLNEDLPKWSGYFEKLLKKNHTNNNNDKYYFVGNNLTYADLAVFNLYDDIETKYPSSLKNFPLLKAHNEFISNLPNIKNYITNRKESVY”, for which the “soluble on expression in E. coli” value was “soluble”.

In the case of “MIYLFSHAGLRDLRDFIDRSTLFAFDLDGTLAPIVSDPAGIMIPPDVHERLVRLNGTASVAVVTGRARVDAARHLGFAPRFLVGNHGAEGLPGADAAEREFIGLCRGWMTQLGELLPEGEGTGIVMEDKSATLSLHYRNAPDRENAHQRILAAVSRLLPAPRRVSGKLVENLVPAAAPHKGDALRCIMRHLGCARALFVGDDVTDEDVFRLGDEAIFGIRVGNSGGSAARYFIRGQDEMAPLLDEILAVLLEHHHHHH”, the “soluble on expression in E. coli” value is reported as “soluble”.

With “MGHHHHHHSHMRKTLIALMFATALPAIAMAAPPAPPAGAPDADAPGMHMQRGDRGPGMHRGPGPLKELDLTREQRQQIDRLMREQMHERREITQNYLEKMPAADQKAMRDEIEAKRSKTDSEVRALLKPDQQKQFDEIKKKEDERRAEWAEFKAWKAAKTAKAQ”, the “soluble on expression in E. coli” value was “soluble”.

On to “SKMARASASASLIDGKIYVFGGCPEDADSSNWAEVFDPVYQTWGIFNTPKMAHSINQSVVIEEKKVYAVDEEDQSFSFLPSEGRIWKSGKKDSKVGSRHDWCVIGKLLYCRATRGRILWCQPDELDWKEVKGLEQLQLYLSGTRYIFRRTSDKRPSKTNVKYDIRKISSNSAGNIVIFGNAHIGDPECVELWSAEISMERREGGEIWGKIEWSNVVFKLDPLSNSYSVDVLFSASVHL”, for which the “soluble on expression in E. coli” value is on record as “soluble”.

Turning to “MLKEFKMIEAVAPDMLDVLQERFQILRNIYWMQPIGRRSLSETMGITERVLRTETDVLKQLNLIEPSKSGMTLTERGLEVYQGLELVMNQLLGMHQIEKEMTQYFGIQRCIVVAGDSDIQKKVLSDFGDVLTNTLNLLLPNGENTIAVMGGTTMAMVAENMGSLETEKRHNLFVPARGGIGEAVSVQANSISAVMANKTGGNYRALYVPEQLSRETYNSLLQEPSIQEVLTLISHANCVVHSIGRALHMAARRKMSDDEMVMLKQKNAVAESFGYFFDEEGKVVYKIPRIGLQLKNLQEIPYVVAIAGGKTKAKAIRAYMKNAPKQTWLITDEAAANEILKGVTL”, the “soluble on expression in E. coli” value was “soluble”.

As for “MGSDKIHHHHHHMTSGLHISTSFDSGAIEVDALDHADDIRLRIRADSHADFRQWFHFRLQGAAGQACRLQFLNAGDCTYPDGWRDYRAVASYDRANWFRVPTRFDGQVLTVEFTPQHDSVWFAYFEPYPEERHLSLLATCQRSPLAKLSHLGSTVDGRDMTRVTVGQPGPGKKTIWMIARQHPGESMAEWFCEGVLQRLTGTGMWAHDPVARKLLESAVFHIVPNMNPDGSARGNLRTNAAGANLNREWMTPSPETSPEVWHVRRAIEATGCDLFFDIHGDEGLPYNFVAGSEMLPSFSEKQREEQTRFIEAFKRVTPDFQDVHGYAASKYNADALKLASKYVGHTFGCLSLTLEMPFKDNADLPDATVGWNGARSALLGTAMLEAILNFLG”, the “soluble on expression in E. coli” value was “not soluble”.

As for “MYSAPDFSNNDYKIIMSSQNMKDEKEELMDINKVSEQEMLARKVSKSYVSKIIEYREITGGFDKLEDMKRIKGIGNATYQKLSKVFKVASAPNKKMLNINSADDMTLKYYGLSKKEIKRIQKYLDKNDRITDNIEFKKIVNKKTYERLKDLINYDGGKRLEHHHHHH”, the “soluble on expression in E. coli” value is on record as “soluble”.

“MSSAQVNGISKRLIVESPNVKLEDGVLESRFTYRKNHFEHRADGLHVTPKEHDYSFKTVLKPRKTGLLLVGLGGNNGSTAVGSIFANQYAMTWRTKEGHSQANYFGSVTQTATVHLGYDSATQNQIFVPFKDIVPILSPNDLIISGWDISDSNLYEAMGRAKVFEPELQEKLRPFMEPIVPLPSIYYPDFIASNQGDRANNVIPGDNKLEHLEHIRADIRKFKQEHELECVIVLWTANTERYTDVRQGLNATADEIMESIRVNEDEVSPSNIFAVASILEGAHYINGSPQNTLVPGLIELAERHKVFVGGDDFKSGQTKFKSAFVDFLVSSGMKPESIVSYNHLGNNDGKNLSEARQFRSKEISKSSVVDDMVKSNQILFPDAKNPDHCVVIKYVPYVADSKRAMDEYICSIFMGGKQTFVVHNTCEDSLLASPLIYDLAILTELASRVSYKVDDEYKPFHSVLSILSLLLKAPVVPPGTPISNAFMRQFSTLTKLVTALAGFPSDTDMQIEFFTQLPAAKSKSQ”: the “soluble on expression in E. coli” value is given as “not soluble”.

With “MNLLERIKKLAKDRDVSIYQLEEEINIGRNTIYQWNKRTPSSDKLEAVANYFNVSVDYLLGRTENPNQAGAKPSDDLDDVLDNVMSFDGEPLDDHDREVIRAYLKGRFGK”, the “soluble on expression in E. coli” value is “not soluble”.

With “MPDSPTPGRRERKKAATRQAIADAALQLFLEHGFDRVSVRDVAERADVSTTTLFAHFPSKESLVFDREQEVDAALAAAVRERPDGQGVVEALRAHALESWVPIVTDPRRARFTALVSDTPALREYSERMWMRHADTLSTVIAEELDREPDDSACAALARFVLEIPALTTGRHDPRATVETVFDLLLHGWRSQAGPRPPQADGR”, the “soluble on expression in E. coli” value is on record as “not soluble”.

Turning to “MAYDSRLPEQRDPATDPSANYDYQGDSVNRPDLVSALEQRVDGDVRFDTYTRELFATDASAYEQLPIGVVSPVSTEDVVAVMEYCAAEDIPVLPRGGGTSLAGQAVNEAVVLDFKRYMDE”, the “soluble on expression in E. coli” value is “not soluble”.

Take “MGSDKIHHHHHHENLYFQGMKTIVIEDKQRIESIILQADACFVGITDLEGNPYVVPMNFGYENDTLYLHSGPEGGKIEMLQRNNNVCITFSLGHKLVYQHKQVACSYSMRSESAMCRGKVEFIEDMEEKRHALDIIMRHYTKDQFSYSDPAVRNVKVWKVPVDQMTGKVFGLRADEKP”: the “soluble on expression in E. coli” value is recorded as “soluble”.

On to “MGSDKIHHHHHHMDVDLNELAGQFASGFLTVDGVYRTTLEAGRVLGHTRAYPTPKSGFLFALKGEASFVFNGTAYHLSPGKVVHGGKNMELIVKVGPAAFEYCLIHYTLHTRSNHPNDTDSHFLLEPGENLAITEKLDLLHRIKSTPGNFPEIQAKALFYTIFHDMLICARNRLNRESQLVIEQVVEYIHHHYMEPMTVKKLADMSGMGVKPFSYLFKKYIGMFPIDYLIQYRLKRAKNLLVSSNSSIADIAESIGYLDALYFSRLFKKHIGCSPTAFRAQMGNCPSDDQ”, for which the “soluble on expression in E. coli” value was “not soluble”.

With “MAKTLYEKLFDSHIVYEAEGETPILYINRHLIHEVTSPQAFDGLRVANRQVRQVNKTFGTMDHSISTQVRDVNKLEGQAKIQVLELDKNTKATGIKLFDITTKEQGIVHVMGPEQGLTLPGMTIVCGDSHTATHGAFGALAFGIGTSEVEHVLATQTLKQARAKSMKIEVRGKVASGITAKDIILAIIGKTTMAGGTGHVVEFCGEAIQDLSMEGRMTVCNMAIEMGAKAGLIAPDETTFAYLKDRPHAPKGKDWEDAVAYWKTLKSDDDAQFDTVVTLEAKDIAPQVTWGTNPGQVISVNETIPNPQEMADPVQRASAEKALHYIGLEAGTNLKDIKVDQVFIGSCTNSRIEDLRAAAAVMKGRKKADNVKRILVVPGSGLVKEQAEKEGLDKIFIAAGAEWRNPGCSMCLGMNDDRLGEWERCASTSNRNFEGRQGRNGRTHLVSPAMAAAAGVFGKFVDIRDVTLN”, the “soluble on expression in E. coli” value is “not soluble”.

With “MSLENPTSIQIWHYYNGQQKMAFDKLVKEFNDTVGAEKGIIVEAFSQGNVVDLSEKVLDSANKKVGSEDVPNIFAAYSDTAYEMDKLGLLVDMDKYISKEELNEYIDEYVEEGRINSKDEFKLFPIAKSTEILMLNKTDWDKFAKATNSNINDIKTIEGLVETSKKYYEWTDSLTKEPNDGKAFFGRDALANYIIIGSKQLGVEIFSVKDGKVTLNIDEKVMKKLWDNFYVPYINGYFASYGKFRSDDAKTGDILALVGSSSGAAYFPDRVMLNDNESYNIETSVFQAPRFKGEGKYAVQQGAGMAVTKSTKEEEYASVEFLKWFTDKEPNIKFSIASGYLPVKKKTNDLDVIKEVMKKDNLSLSDKVEGSIASSIEQINSCNLYTNKAFDGGTKARQILEYSMLDKAKEDSNKINELVKSGTSKKDAVAQFNNDKNFKTWFEIFKAELENAIKEGHHHHHH”, the “soluble on expression in E. coli” value is “soluble”.

For the sequence “MVVFEITILGANGGPTEYGTQCFILKPARTEDPELIAVDGGAGMYQLREMLVQGRNENEGDDELVPSFYEHDREPIEFFIDSKLNIQKGLSKSLLQSLKRQGEHFESANTMKKTYEVFQGITDYYITHPHLDHISGLVVNSPSIYEQENSKKKTIWGLPHTIDVLQKHVFNDLIWPDLTAERSRKLKLKCLNPKEVQKCTIFPWDVIPFKVHHGIGVKTGAPVYSTFYIFRDRKSKDCIIVCGDVEQDRRESEESLLEEFWSYVAENIPLVHLKGILVECSCPLSSKPEQLYGHLSPIYLINELSNLNTLYNSSKGLSGLNVIVTHVKSTPAKRDPRLTILEELRFLAEERNLGDLRISIALEGHTLFL”, the “soluble on expression in E. coli” value is recorded as “not soluble”.

As for “MEASEEVTMVNKGDDGKSGIRYYTTIEELSRAINAGLSLQDRRMSEEEAMEAAEHIINFFGYNDRVIDNMLEPEDRDSFYTMEDIGILQTEREETTLFDGREWRIHYWILNINKIMELANMQVDYKKKITNDEYKIYDEIPDDYWKVVE”, the “soluble on expression in E. coli” value is recorded as “not soluble”.
